According to patent US11959134, “Methods of determining nucleic acid structural information” (Bionano Genomics, Inc.):

B1: T7 phage genomic DNA containing three M.BseCI sites (dsDNA)
DNA 1: ATCGAT
DNA 2: ATCGAT
B2: E. coli genomic DNA containing M.BseCI sites (dsDNA)
DNA 1: ATCGAT
DNA 2: ATCGAT

Assays:
[1] = target: T1, M.BseCI DNA adenine methyltransferase (UniProt P43423 P43423:1-579); assay: sequence-specific covalent labeling with Atto532AdoY cofactor seen in nanochannels; 285 nM enzyme, 10 mM Tris-HCl, 10 mM EDTA, 5 mM beta-mercaptoethanol, pH 7.4, 55 C, 5 h
T1 sequence (P43423 whole entry, one chain of several): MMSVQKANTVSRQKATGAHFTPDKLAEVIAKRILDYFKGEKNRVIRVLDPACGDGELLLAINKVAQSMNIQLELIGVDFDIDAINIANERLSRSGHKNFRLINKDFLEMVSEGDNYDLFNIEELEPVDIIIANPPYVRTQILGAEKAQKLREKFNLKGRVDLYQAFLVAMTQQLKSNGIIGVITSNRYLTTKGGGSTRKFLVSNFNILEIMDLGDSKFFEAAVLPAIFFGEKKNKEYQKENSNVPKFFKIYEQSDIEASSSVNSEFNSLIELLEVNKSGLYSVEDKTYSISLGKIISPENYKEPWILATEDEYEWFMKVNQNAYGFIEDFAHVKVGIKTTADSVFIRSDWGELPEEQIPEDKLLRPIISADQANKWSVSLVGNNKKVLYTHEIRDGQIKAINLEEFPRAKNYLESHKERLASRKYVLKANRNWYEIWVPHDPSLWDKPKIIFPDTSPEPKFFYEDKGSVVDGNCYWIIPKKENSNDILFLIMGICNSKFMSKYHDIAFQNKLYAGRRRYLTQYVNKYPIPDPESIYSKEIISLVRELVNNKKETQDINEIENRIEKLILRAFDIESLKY
Description: A solution (40 ul) of 2 uL T7 DNA (500 ng/ul), M.BseCI (285 nM) and Atto532AdoY (40 uM) in 10 mM Tris-HCl, 10 mM EDTA, and 5 mM β-mercaptoethanol, pH 7.4 were mixed with 4 uL NaOH (0.1M). The solution was incubated for 5 h at 55° C. Proteinase K (1 ul) was added and the solution incubated for 1 h at 37° C. DNA was ethanol precipitated and redissolved in 1×TE buffer (10 ul).
For DNA staining of the T7 DNA labeled in Example 5, above, a solution (50 ul) of DNA (10 ng/ul), YOYO-1 (500 nM) in 1× flow buffer was incubated for 4 h at 4° C. Subsequently, a freshly prepared solution (4 ul) of 4-nitrobenzoic alcohol (1.4 mM), Trolox (1.4 mM), protocatechuate-3,4-dioxygenase (0.36 uM), protocatechuic acid (50 ug) was mixed with 10 uL of the stained DNA (above) and was loaded onto an IrysChip™ and imaged using the Irys™ instrument. FIG. 4 represents an example of imaged, labeled T7 DNA molecules.

[2] = target: T1, M.BseCI DNA adenine methyltransferase; assay: labeling with Atto532AdoY, 22x enzyme excess over sites, 55 C, 5 h; labeled DNA assembled into single contig aligned to reference
Description: A solution (40 ul) of E. coli DNA (500 ng), M.BseCI (22× excess over DNA sites) and Atto532AdoY (40 uM) in 10 mM Tris-HCl, 10 mM EDTA, and 5 mM beta-mercaptoethanol, pH 7.4 were mixed with 4 uL NaOH (0.1M). The solution was incubated for 5 h at 55° C. Proteinase K (1 ul) was added and the solution incubated for 1 h at 37° C. The DNA was dialyzed against 1×TE buffer and stained with YOYO-1 to a final concentration of 3.5-5 ng/ul.
A freshly prepared solution (4 ul) of 4-nitrobenzoic alcohol (1.4 mM), Trolox (1.4 mM), protocatechuate-3,4-dioxygenase (0.36 uM), protocatechuic acid (50 ug) was mixed with stained E. coli DNA of Example 7, 1× flow buffer and Tris (25 mM) and NaCl (10 mM) were added. The sample was loaded onto an IrysChip™ and imaged using the Irys™ instrument.
The E. coli DNA of Examples 7 and 8 was assembled and compared to a reference genome. The labeled E. coli DNA assembled into a single contig (FIG. 5, right contig) and aligned to a reference contig sequence (FIG. 5, left contig).

| Binder | binding result [1] | binding result [2] |
| --- | --- | --- |
| B1 | binds | – |
| B2 | – | binds |
